# B1: Pirin (Homo sapiens), O00625 (parent)
# chain: MGSSKKVTLSVLSREQSEGVGARVRRSIGRPELKNLDPFLLFDEFKGGRPGGFPDHPHRGFETVSYLLEGGSMAHEDFCGHTGKMNPGDLQWMTAGRGILHAEMPCSEEPAHGLQLWVNLRSSEKMVEPQYQELKSEEIPKPSKDGVTVAVISGEALGIKSKVYTRTPTLYLDFKLDPGAKHSQPIPKGWTSFIYTISGDVYIGPDDAQQKIEPHHTAVLGEGDSVQVENKDPKRSHFVLIAGEPLREPVIQHGPFVMNTNEEISQAILDFRNAKNGFERAKTWKSKIGN
# partner: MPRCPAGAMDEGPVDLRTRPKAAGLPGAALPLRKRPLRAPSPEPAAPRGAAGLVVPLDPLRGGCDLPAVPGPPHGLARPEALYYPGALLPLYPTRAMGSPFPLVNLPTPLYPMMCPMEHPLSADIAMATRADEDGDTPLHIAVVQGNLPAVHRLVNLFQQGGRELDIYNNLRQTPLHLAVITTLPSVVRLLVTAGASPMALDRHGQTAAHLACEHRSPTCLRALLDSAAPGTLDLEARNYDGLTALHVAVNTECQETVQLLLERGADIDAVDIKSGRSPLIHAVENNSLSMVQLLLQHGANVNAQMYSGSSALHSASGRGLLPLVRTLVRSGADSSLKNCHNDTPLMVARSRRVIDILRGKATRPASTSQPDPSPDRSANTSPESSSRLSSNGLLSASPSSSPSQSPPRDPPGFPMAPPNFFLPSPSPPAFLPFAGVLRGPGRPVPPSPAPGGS
# Variants of: B1
# Details: with bcl3_human BCL3, P20749
row,effect of a mutation on the interaction,Variant
1,disrupting interaction,E103A

# Source: IntAct's records for PubMed 25680527
